Data as given in US20250154272A1 (Astellas, published 2025).
Like-named read-outs stand apart in the source and are kept apart here. Blank lines part the entries; values can stand above or below the binder they belong to.

Experiments:
[1] = target: T1, human CLDN4 expressed on CHO-K1 cells (human, UniProt O14493 1-209); test: flow cytometry on human CLDN4 expressing CHO-K1, apparent KD
T1 construct: whole, on cells; also called human CLDN4 expressing CHO-K1
T1 sequence (looked up): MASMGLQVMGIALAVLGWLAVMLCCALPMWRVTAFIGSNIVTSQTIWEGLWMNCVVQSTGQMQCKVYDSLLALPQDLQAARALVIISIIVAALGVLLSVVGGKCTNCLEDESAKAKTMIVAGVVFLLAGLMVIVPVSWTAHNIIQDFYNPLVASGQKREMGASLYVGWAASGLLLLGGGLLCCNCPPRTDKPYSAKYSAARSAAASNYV

[2] = target: T2, human CD137-His tag protein (R&D Systems, 9220-4B) (human, UniProt Q07011 24-186); test: ELISA, human CD137-His tag protein immobilized on the plate, anti-human IgG Fc-HRP, A450-A570
T2 construct: Bought protein; not shown: His tag of the bought protein

[3] = target: T2, human CD137-His tag protein (R&D …); test: as above; remark: listed apart in the source
[4] = target: T3, monkey CD137-His tag-3×FLAG tag fusion protein (monkey); test: SPR, Biacore T200, antibody captured on Protein A chip, CD137 as analyte
T3 construct: Residues 1-183 are the encoded extracellular region as stated; also called Monkey CD137-His-3 × FLAG
T3 chain: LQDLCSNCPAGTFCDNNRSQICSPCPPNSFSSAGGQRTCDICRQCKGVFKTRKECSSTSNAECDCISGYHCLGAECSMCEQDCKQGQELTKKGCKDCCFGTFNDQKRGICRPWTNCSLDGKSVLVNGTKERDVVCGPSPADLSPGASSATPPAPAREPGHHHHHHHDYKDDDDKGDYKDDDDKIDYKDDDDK

[5] = target: T2, human CD137-His tag protein (R&D …); test: as above
[6] = target: T2, human CD137-His tag protein (R&D …); test: ELISA, human CD137-His tag protein immobilized on the plate, anti-human IgG Fc-HRP, A450-A570; remark: listed apart in the source
[7] = target: T4, human CD137-human Fc fusion protein (human, UniProt Q07011 24-186); test: ELISA of the purified antibody on coated plates
T4 construct: not shown: human IgG1 Fc of the pFUSE-hIgG1-Fc1 vector (InvivoGen, pfuse-hg1fc1)

[8] = target: T5, monkey CD137-human Fc fusion protein (monkey; human, UniProt Q07011 24-186); test: ELISA of the purified antibody on coated plates
T5 construct: not shown: human IgG1 Fc of the pFUSE-hIgG1-Fc1 vector (InvivoGen, pfuse-hg1fc1)
T5 chain: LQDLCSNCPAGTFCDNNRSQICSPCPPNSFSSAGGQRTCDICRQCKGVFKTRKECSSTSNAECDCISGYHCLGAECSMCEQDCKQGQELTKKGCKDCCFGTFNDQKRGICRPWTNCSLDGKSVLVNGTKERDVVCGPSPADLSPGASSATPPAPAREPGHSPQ

[9] = target: T6, human EpCAM-Myc-DDK expressed on CHO-K1 cells (human, UniProt P16422 24-314); test: flow cytometry of the clone supernatant on human EpCAM-Myc-DDK expressing CHO-K1 cells
T6 construct: whole, on cells; also called EpCAM expressing cells; not shown: Myc-DDK tag of the ORIGENE construct
T6 sequence (looked up): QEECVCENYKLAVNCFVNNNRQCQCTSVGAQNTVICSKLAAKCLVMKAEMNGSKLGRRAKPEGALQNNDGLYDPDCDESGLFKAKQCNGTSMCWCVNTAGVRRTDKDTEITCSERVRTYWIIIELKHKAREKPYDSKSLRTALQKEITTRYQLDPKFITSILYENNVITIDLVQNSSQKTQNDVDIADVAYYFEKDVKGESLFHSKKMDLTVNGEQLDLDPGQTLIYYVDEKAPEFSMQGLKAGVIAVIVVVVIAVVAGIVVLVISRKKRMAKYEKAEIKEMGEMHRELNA

[10] = target: T7, human CLDN4-Myc-DDK expressed on CHO-K1 cells (human, UniProt O14493 1-209); test: binding experiment on human CLDN4-Myc-DDK expressing CHO-K1 cells
T7 construct: whole, on cells; also called human CLDN4-Myc-DDK expressing CHO-K1 cells; not shown: Myc-DDK tag of the ORIGENE construct
T7 sequence (looked up): T1 sequence (looked up)

B2: anti-CLDN4 (hKM3900)/anti-CD137 scFv bispecific antibody hKM3900_L-3-34-j6 (bispecific antibody)
heavy: EVQLVQSGAEVKKPGASVKISCKASGYTFTDYYMNWVRQAPGQGLEWMGDVVPNNGVPTYNQKFKGRVTITADKSTSTAYMELRSLRSEDTAVYYCARPHYYYAGRSGAMDYWGQGTLVTVSS
light (part 1 of 2): DIQLTQSPSSLSASVGDRVTITCTASSTVSSTYLHWYQQKPGKAPKLLIYSTSNLASGVPSRFSGSGSGTDYTLTISSLQPEDFATYYCHQYHRSPPTFGQGTKLEIKRTVAAPSVFIFPPSDEQLKSGTASVVCLLNNFYPREAKVQWKVDNALQSGNSQESVTEQDSKDSTYSLSSTLTLSKADYEKHKVYACEVTHQGLSSPVTKSFNRGEC
light (part 2 of 2): EVQLLESGGGLVQPGESLRLSCKAFGYTFTNHHINWVRQAPGKCLEWVGYINPYNDYTTFNDKFKDRFTLSVDKSKSTAYLQMNSLRAEDTAVYYCARTWGHWYFDLWGQGTLVTVSSGGGGSGGGGSGGGGSNIQMTQSPSSLSASVGDRVTITCRASQSVSSNLAWYQQKPGKAPKLLIYDSSTRATGVPSRFSGSGSGTDFTLTISSLQPEDFATYYCQQYNNWPPWTFGCGTKLEIKR
notes: scFv at the light chain C-terminus; not shown: human IgG1 heavy chain constant region; mutation positions by EU index; GS linker
- EC50 (read off the curve) [3]: ~4 ng/mL

B4: anti-CD137 antibody A2-32 (antibody, V domains shown)
VH: QVQLQESGPGLVKPSETLSLTCTVSGGSISGYYWSWIRQPPGKGLEWIGYIYYSGFTNYNPSLKSRVTISVDTSKNQFSLKLSSVTAADTAVYYCTRDHSHYYYMDVWGQGTTVTVSS
VL: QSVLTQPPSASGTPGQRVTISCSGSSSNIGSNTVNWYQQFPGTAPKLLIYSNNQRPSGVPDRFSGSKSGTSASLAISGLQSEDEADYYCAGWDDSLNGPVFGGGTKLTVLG
notes: Purified from a hybridoma derived from an AlivaMab mouse
- binding result [7]: binds
- binding result [8]: binds

B5: humanized anti-CLDN4 (hKM3900) antibody (antibody, V domains shown)
VH: B2 heavy
VL: DIQLTQSPSSLSASVGDRVTITCTASSTVSSTYLHWYQQKPGKAPKLLIYSTSNLASGVPSRFSGSGSGTDYTLTISSLQPEDFATYYCHQYHRSPPTFGQGTKLEIKR
- Kd [1]: 10.8 nM
- binding result [6]: no binding (tested: 1000 ng/mL)

B6: 3D11 antibody (antibody, V domains shown)
VH: QVQLGQSGPEVKKPGASVKVSCKASGYSFISYGISWVRQAPGQGLEWMGWSSVYNGNTNYVQKFQGRVTMTTDTSASTAYMELRSLRSDDAAVYYCARDSYSSGWSYYYSGMDVWGQGTTVTVSS
VL: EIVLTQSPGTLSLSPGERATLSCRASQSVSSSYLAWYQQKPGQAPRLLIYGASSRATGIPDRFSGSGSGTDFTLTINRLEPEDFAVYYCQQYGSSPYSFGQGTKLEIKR
notes: Purified from the hybridoma supernatant of a VelocImmune mouse: human variable regions with mouse constant regions (chimeric antibody); also called 3D11 clone
- binding result [9]: no binding
- binding result [10]: binds

Other lines, results leading:

- Kd [1]: 11.2 nM
- EC50 (read off the curve) [2]: ~10 ng/mL
- EC50 (read off the curve) [3]: ~6 ng/mL
- Kd [4]: 10.7 nM
- koff [4]: 0.00191 s⁻¹
- kon [4]: 179000 M⁻¹ s⁻¹
- Kd [5]: 5.81 nM
- koff [5]: 0.00135 s⁻¹
- kon [5]: 232000 M⁻¹ s⁻¹
- EC50 (read off the curve) [6]: ~8 ng/mL
B1: anti-CLDN4 (hKM3900)/anti-CD137 scFv bispecific antibody hKM3900_3-34-j6 (bispecific antibody, human IgG1, kappa, L234A L235A)
heavy: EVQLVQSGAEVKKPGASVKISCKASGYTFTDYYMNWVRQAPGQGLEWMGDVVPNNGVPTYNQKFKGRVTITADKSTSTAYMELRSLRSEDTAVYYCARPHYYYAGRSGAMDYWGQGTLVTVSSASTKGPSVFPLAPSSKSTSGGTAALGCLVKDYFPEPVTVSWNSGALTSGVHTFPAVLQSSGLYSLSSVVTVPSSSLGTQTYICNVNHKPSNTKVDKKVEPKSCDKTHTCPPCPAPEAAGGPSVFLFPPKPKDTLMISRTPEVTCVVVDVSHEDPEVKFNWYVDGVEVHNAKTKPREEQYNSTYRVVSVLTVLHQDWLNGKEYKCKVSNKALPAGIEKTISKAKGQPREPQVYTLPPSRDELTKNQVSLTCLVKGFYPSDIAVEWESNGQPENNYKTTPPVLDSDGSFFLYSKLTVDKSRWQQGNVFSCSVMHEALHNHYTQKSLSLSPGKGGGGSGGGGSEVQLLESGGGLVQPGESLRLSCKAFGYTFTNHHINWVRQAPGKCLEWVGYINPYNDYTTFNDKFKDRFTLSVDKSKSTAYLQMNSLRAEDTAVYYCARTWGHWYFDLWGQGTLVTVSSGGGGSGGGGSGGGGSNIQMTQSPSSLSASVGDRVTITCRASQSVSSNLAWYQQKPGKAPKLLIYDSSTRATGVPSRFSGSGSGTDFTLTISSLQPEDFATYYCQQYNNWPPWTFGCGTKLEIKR
light: B2 light (part 1 of 2)
notes: The heavy chain entry holds the hKM3900 heavy chain (L234A, L235A, P331G), the linker and the 3-34-j6 scFv

- Kd [1]: 10.8 nM
- EC50 (read off the curve) [2]: ~10 ng/mL
- Kd [4]: 6.68 nM
- koff [4]: 0.00192 s⁻¹
- kon [4]: 288000 M⁻¹ s⁻¹
- Kd [5]: 5.84 nM
- koff [5]: 0.00219 s⁻¹
- kon [5]: 374000 M⁻¹ s⁻¹
- EC50 (read off the curve) [6]: ~8 ng/mL
B3: anti-CLDN4 (hKM3900)/anti-CD137 scFv bispecific antibody hKM3900_tA2-32LH (bispecific antibody, human IgG1, kappa, L234A L235A)
heavy: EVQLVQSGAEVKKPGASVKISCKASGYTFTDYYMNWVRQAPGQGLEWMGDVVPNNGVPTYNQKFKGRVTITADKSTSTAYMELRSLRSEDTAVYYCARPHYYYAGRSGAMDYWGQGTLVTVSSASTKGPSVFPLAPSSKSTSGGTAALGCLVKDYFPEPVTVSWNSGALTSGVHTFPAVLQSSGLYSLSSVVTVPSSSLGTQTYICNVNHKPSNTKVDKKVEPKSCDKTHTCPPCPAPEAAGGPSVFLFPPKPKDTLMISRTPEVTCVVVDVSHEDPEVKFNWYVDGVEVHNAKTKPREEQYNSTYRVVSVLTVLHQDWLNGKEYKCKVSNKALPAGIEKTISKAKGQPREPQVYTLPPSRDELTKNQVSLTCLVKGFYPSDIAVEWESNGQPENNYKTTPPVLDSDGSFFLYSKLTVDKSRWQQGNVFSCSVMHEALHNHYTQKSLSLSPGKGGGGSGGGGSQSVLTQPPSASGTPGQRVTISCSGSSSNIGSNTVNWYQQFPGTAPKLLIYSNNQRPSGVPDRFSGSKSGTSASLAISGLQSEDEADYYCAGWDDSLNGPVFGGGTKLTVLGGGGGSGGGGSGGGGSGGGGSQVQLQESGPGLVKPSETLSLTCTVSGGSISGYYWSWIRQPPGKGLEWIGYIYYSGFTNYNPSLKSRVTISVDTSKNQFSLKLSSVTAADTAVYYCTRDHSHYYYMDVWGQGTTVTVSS
light: B2 light (part 1 of 2)
notes: The heavy chain entry holds the hKM3900 heavy chain (L234A, L235A, P331G), the linker and the tA2-32LH scFv
